Measurements from patent US20240301070A1, “IMPROVING ANTIBODY TOLERABILITY ASSOCIATED WITH INTRAVENOUS ADMINISTRATION” (BIOINVENT INTERNATIONAL AB, priority 2020, published 2024).
Entries after “also recorded” stand apart in the source; their conditions may differ.

How the values were obtained:
[1] = system: human subjects with non-hodgkins B-cell lymphoma; experiment: ALT/AST in clinical studies with BI-1206
Source text: (§1) Platelet counts, ALT concentrations and IRR grading were obtained from clinical sites where anayzed and reported according local standard procedures.

[2] = system: human subjects with non-hodgkins B-cell lymphoma; experiment: Cytokine analysis of plasma/serum of human subjects (MSD); assay type: in vivo
Protocol: For cytokine concentrations, frozen plasma samples were thawed and diluted ×2 and ×8. Two parallel set of cytokines were analyzed, the proinflammatory assay with IL-6, IL-8, TNF-α, IFN-γ, IL-10, IL-2 and IL-4 (MesoScale Discovery (MSD) #K15049), and the chemokine assay with MIP-1β, IL-1β, IL-23, IL-12p 70, TARC and VEGF (MSD #K15067). The assays followed the manufacturer's protocol as outlined briefly: 50 μL of sample and calibration standard were added to the appropriate MSD plates and incubated. Following washing, 25 µL of SULFO-TAG detection antibody mixture were added to each well of the corresponding plate. The plates were analyzed on a QuickPlex SQ120 Reader instrument (MSD) and cytokine concentration was calculated using the MSD software (Discovery Workbench, 2013; version LSR-4-0-12).

[3] = system: human subjects with non-hodgkins B-cell lymphoma; experiment: IRR grading in clinical studies with BI-1206; assay type: in vivo
Source text: The IRR that may be prevented or mitigated as described herein and/or that may be predicted with the method described herein may be any IRR. The adverse event denoted “Infusion related reaction” in the CTCAE version 5.0 is used for disorders characterized by adverse reaction to the infusion of pharmacological or biological substances; belonging to the group of “Injury, poisoning and procedural complications”.

[4] = system: human subjects with non-hodgkins B-cell lymphoma; experiment: Platelet counts in clinical studies with BI-1206; assay type: in vivo
Source text: as §1

peripheral B lymphocytes = experiment: Peripheral B lymphocyte depletion in human subjects; assay type: in vivo; conditions: 100 mg BI-1206
FcgRIIb = target: T1, FcgRIIb (Homo sapiens, UniProt P31994); experiment: FcgRIIb receptor occupancy on peripheral B cells (flow cytometry); assay type: in vivo; conditions: 100 mg BI-1206
T1 construct: FcgRIIb receptor occupancy on peripheral B cells (A) and peripheral B cell levels (B) in human subjects; endogenous in cells; host or cells: peripheral CD19+ B cells in whole blood of human subjects (same method also used on hFcgRIIB transgenic mice)
T1 sequence (P31994 43-310): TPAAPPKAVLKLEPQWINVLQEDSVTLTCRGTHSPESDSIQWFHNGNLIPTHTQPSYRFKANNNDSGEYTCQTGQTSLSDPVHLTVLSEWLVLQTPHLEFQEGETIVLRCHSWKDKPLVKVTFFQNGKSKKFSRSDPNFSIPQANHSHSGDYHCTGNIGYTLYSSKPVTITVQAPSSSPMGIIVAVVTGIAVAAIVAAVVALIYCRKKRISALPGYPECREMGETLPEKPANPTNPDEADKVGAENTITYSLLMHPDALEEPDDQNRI
Protocol: The FcgRIIb receptor occupancy in humans and hFcgRIIb transgenic mice was analyzed using flow cytometry. Whole blood from was incubated with either 005-C05 antibody (targeting hFcgRIIb) or anti-hCD32-AF647 antibody. 005-C05 binds the same epitope as BI-1206 but with much lower affinity. In the analysis, the Geo Mean of respectively mAb (005-C05 and anti-human CD32) was acquired on the CD19+ cell population. Receptor occupancy (RO) was calculated using the following equations: RO (%)=((Total Receptors-Normalized Free Receptors)*100)/Total Receptors. All replicates of 005-C05 geo mean of CD19+ cells were then multiplied by the Normalization factor.

wildtype C57/BL6 mice [5] = experiment: Platelet count in fresh mouse blood (Vetscan); assay type: in vivo; conditions: 40 mg/kg, 1 hour only, 10 mg/kg AT-130-2 IgG2a i.v.
Protocol: Blood samples were collected from vena saphena 20 min post injection of bulk dose of anti-CD32B for instant blood count analysis. For liver enzyme and cytokine analysis, the mice were bled from the aorta under isoflurane anesthesia just prior to sacrifice. Samples for liver enzymes and cytokines were collected 1h and respectively 3h after bulk dose.
Platelet counts were analyzed in fresh blood using a Vetscan (Vetscan HM5 Abaxis, Triolab).
Blood samples were collected from vena saphena for instant blood count analysis. For serum concentrations of AT130-2, liver enzyme and cytokine analysis, the mice were bled from the aorta under isoflurane anesthesia just prior to sacrifice.
Blood samples were collected from vena saphena for instant blood count analysis.

wildtype C57/BL6 mice [6] = experiment: Macroscopic IRR scoring (0-2) of mice after antibody injection; assay type: in vivo, mouse
Protocol: Six to eight weeks-old (17-20 g) female C57/BL6 and Balb C mice were obtained from Taconic or Janvier. Mice were injected i.v with mouse anti-CD32B AT-130-2 IgG2a either as a bulk dose of 200 ug/mouse or as a split-dose with 8 ug/mouse followed by 200 ug/mouse. […]
Mice were monitored post injection with regards to changes in behavior and macroscopic symptoms such as isolation, mobility, and fur condition. Macroscopic IRRs scoring system of 0-2 was set up based on the observations.
These premedications were given i.p 1h prior to injection i.v of mouse anti-CD32B AT-130-2 IgG2a as a bulk dose of 200 ug/mouse. […]
Mice were monitored post injection with regard to changes in behavior and macroscopic symptoms such as isolation, mobility, and fur condition. Macroscopic IRRs scoring system of 0-2 was set up based on the observations: […]

[7] = target: mouse CD32B (FcγRIIB) (mouse) (UniProt P08101); experiment: receptor saturation at 10 ug/ml serum concentration of AT-130-2; separate experiments not shown
Chain of mouse CD32B (FcγRIIB) (mouse) (P08101 30-207 limits assumed): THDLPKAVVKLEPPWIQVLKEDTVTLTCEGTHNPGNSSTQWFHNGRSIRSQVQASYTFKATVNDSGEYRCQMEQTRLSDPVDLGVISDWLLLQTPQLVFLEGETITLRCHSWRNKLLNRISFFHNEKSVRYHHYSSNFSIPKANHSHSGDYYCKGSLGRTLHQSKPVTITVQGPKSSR

[8] = 70 mg BI-1206, subjects 501-001 and 503-002
[9] = ≥50 mg BI-1206 (FIG. 6: 70-100 mg)

BI-1206: anti-FcγRIIB antibody with light chain SEQ ID No: 1 and heavy chain SEQ ID No: 2
ALT/AST increase after premedication with two doses of dexamethasone [1, 8]: no ALT/AST increase | subjects with significant ALT and AST increase ([1]; ≥70 mg BI-1206): 3 out of 16 | subjects with transient cytokine release ([2]; 70-100 mg BI-1206 (FIG. 6), serum/plasma available): 7 of 8 | association of cytokine release with clinical symptoms ([2]; ≥70 mg BI-1206): not been associated with clinical symptoms | cytokines included in the release ([2]; ≥70 mg BI-1206): macrophage inflammatory protein (MIP)-1β, tumor necrosis factor (TNF)-α, interleukin (IL)-10, IL-8, IL-6, and IL-4 | time of peak cytokine release ([2]; ≥70 mg BI-1206): immediately after infusion | time to normalization of cytokines ([2]; ≥70 mg BI-1206): ≤ 24 h | IRR's without two-dose premedication ([3]; 30 mg BI-1206, subject 201-003, 9 administrations): repeatedly experienced IRR's | grade of IRR's with two doses of dexamethasone ([3]; 30 mg BI-1206, subject 201-003, 10th administration): 1 | IRRs after premedication with two doses of dexamethasone ([3]; 70 mg BI-1206, subjects 501-001 and 503-002, 12 mg / 4 mg evening before and 20 mg 30 minutes prior): None of the subjects suffered any IRRs; also recorded: did not suffer IRRs | grade of IRRs ([3]; 70 mg BI-1206 with rituximab, subjects 501-001 and 503-002, dexamethasone (20 mg) only 30 minutes prior to infusion): 2-3 | severity and frequency of IRRs after implementation of two-dose corticosteroid premedication ([3]; 70-100 mg BI-1206, study 17-BI-1206-02): Significantly lower frequency and severity of IRRs; also recorded: statistically significant reduced severity and frequency of IRRs | infusion related reactions (IRRs) during BI-1206 infusions ([3]; i.v., human subjects): frequently associated with IRRs; also recorded: Frequent | platelet decrease ([4]; 30 mg BI-1206, subject 201-003): never been seen | platelet decrease after premedication with two doses of dexamethasone [4, 8]: no/low platelet decrease | platelets [4, 9]: The decrease is transient | seriousness of thrombocytopenia [4, 9]: never serious or associated with bleeding; also recorded: not been serious nor associated with bleeding | time to resolution of most thrombocytopenia episodes [4, 9]: within a week | peripheral B lymphocytes (peripheral B lymphocytes): transient depletion | time to recovery of peripheral B lymphocytes (peripheral B lymphocytes): approximately 7 days | FcγRIIB receptor occupancy on peripheral B cells (FcgRIIb): ~100% | duration of receptor saturation (FcgRIIb): up to 48 hours

C[C@H]1C[C@H]2[C@@H]3CCC4=CC(=O)C=C[C@]4(C)[C@@]3(F)[C@@H](O)C[C@]2(C)[C@@]1(O)C(=O)CO [betamethasone]
effect of single premedication on platelet decrease (wildtype C57/BL6 mice [5]): did not inhibited | effect of single premedication on macroscopic symptoms (IRRs) (wildtype C57/BL6 mice [6]; 40 mg/kg, 1 hour only, 10 mg/kg AT-130-2 IgG2a i.v.): did not inhibited | grade of macroscopic symptoms after single premedication (wildtype C57/BL6 mice [6]; 40 mg/kg, 24 hours only, 10 mg/kg AT-130-2 IgG2a i.v.): 1

AT-130-2 IgG2a (anti-mouse CD32B IgG2a clone AT130-2) (antibody)
receptor saturation [7]: 100%

CCCCCCCCCCCCCCCCCCNC(=O)OCC(COP(=O)([O-])OCC[n+]1ccsc1)OC (stereo not drawn) [anti-PAF]
inhibition of IRRs by other pre-medications (wildtype C57/BL6 mice [6]; i.p. 1h prior to i.v. AT-130-2 IgG2a bulk dose 200 ug/mouse): None of these pre-medications could inhibit IRRs; also recorded: none of the tested substances (anti-PAF, anti-IL-6, anti-histamine and a leukotrien-antagonist) could prevent the IRRs
